As a reminder, the Kd is the concentration at which binding is half-saturated.

From patent US20240041989A1 (UNIVERSITY OF KENTUCKY RESEARCH FOUNDATION, published 2024) come the findings set out here.

Where a chain is given by its changes, count along the chain named. In names and notes the source's numbering stands.

Assay [1] has as its target T1, Human FcRn, soluble single-chain fusion protein (B2M-(GGGGS)3-heavy chain without transmembrane domain-6xHis) (human, UniProt P61769 21-119; P55899 24-297).
T1 construct: also called neonatal Fc receptor; hFcRn
The assay is described as follows: ELISA, FcRn coated on plate, pH 6.0. The procedure: (§1) In vitro binding affinity assay. The binding affinity of the BChE fusion proteins corresponding to CocH3-Fc (SEQ ID NO: 9), CocH3-Fc(M6) (SEQ ID NO: 10), CocH3G-Fc(M3) (SEQ ID NO: 11), CocH3G-Fc(M4) (SEQ ID NO: 12), CocH3G-Fc(M6) (SEQ ID NO: 13), CocH5G-Fc(M3) (SEQ ID NO: 14), CocH5G-Fc(M4) (SEQ ID NO: 15), and CocH5G-Fc(M6) (SEQ ID NO: 16), BChE-Fc(M3) (SEQ ID NO: 17), BChE-Fc(M4) (SEQ ID NO: 18), and BChE-Fc(M6) (SEQ ID NO: 19) with FcRn was determined by using an enzyme-linked immunosorbent assay (ELISA). 400 ng of the 6×His-tagged FcRn in 100 μL 0.05 M PBS, pH 7.4, was immobilized in a 96-well flat-bottomed EIA plate (Corning) at 4° C. overnight (or 37° C. for 2 hours). At the same time, corresponding empty wells without FcRn coating were left as a negative control. The liquid was dumped from the plates and the rest was drained on a paper towel. Coated wells were blocked with blocking buffer (0.05 M PBS, pH 6.0, containing 1 mg/ml casein) (250 μL/well) at room temperature (RT) for 1 hour. After washing twice with washing buffer (0.05 M PBS, pH 6.0) (250 μL/well), 100 μL of BChE fusion protein diluted in blocking buffer, pH 6.0 was added to each well at a range of concentrations. The plate was then covered with an adhesive plastic and incubated, with continuous shaking, at RT for 1 hour. After washing three times with washing buffer, an enzyme horseradish peroxidase (HRP)-conjugated antibody (anti-human IgG-Fc Ab-HRP) (70 μL/well), diluted with blocking buffer at a ratio of 1:20,000, was added into each well and incubated at RT for 30 minutes on a shaker. The wells were then washed three times with washing buffer (250 μL/well) before 250 μL TMB substrate was added to the wells. The ELISA plate was kept in the dark until the desired color developed. The reaction was stopped with 100 μL of 0.5 M HCl. The absorbance (the developed blue color) was measured at 450 nm using a microplate reader. All measurements were performed in triplicate or quadruplicate.

Assay [2] concerns the target T1, Human FcRn, soluble single-chain fusion …. In words: ELISA, FcRn coated on plate, pH 6.0, anti-human IgG-Fc-HRP detection. How it is done: as §1, with “After washing three times with washing buffer, an enzyme horseradish peroxidase (HRP)-conjugated antibody (anti-human IgG-Fc Ab-HRP) (70 μL/well), diluted with blocking buffer at a ratio of 1:20,000, was added into each well and incubated at RT for 30 minutes on a shaker. The wells were then washed three times with washing buffer (250 μL/well) before 250 μL TMB substrate was added to the wells. The ELISA plate was kept in the dark until the desired color developed. The reaction was stopped with 100 μL of 0.5 M HCl.” left out, “All measurements were performed in triplicate or quadruplicate.” left out
(In general: In an ELISA, binding on a coated surface is turned into a signal by an enzyme label.)

For assay [3] the target is unchanged. The assay is described as follows: ELISA, FcRn coated on plate, pH 6.0; reference CocH3-Fc. The procedure:
as §1, with “After washing three times with washing buffer, an enzyme horseradish peroxidase (HRP)-conjugated antibody (anti-human IgG-Fc Ab-HRP) (70 μL/well), diluted with blocking buffer at a ratio of 1:20,000, was added into each well and incubated at RT for 30 minutes on a shaker. The wells were then washed three times with washing buffer (250 μL/well) before 250 μL TMB substrate was added to the wells. The ELISA plate was kept in the dark until the desired color developed. The reaction was stopped with 100 μL of 0.5 M HCl.” left out, “All measurements were performed in triplicate or quadruplicate.” left out

T1 sequence (P61769 other isoform, or with tags, fused parts or gaps limits assumed): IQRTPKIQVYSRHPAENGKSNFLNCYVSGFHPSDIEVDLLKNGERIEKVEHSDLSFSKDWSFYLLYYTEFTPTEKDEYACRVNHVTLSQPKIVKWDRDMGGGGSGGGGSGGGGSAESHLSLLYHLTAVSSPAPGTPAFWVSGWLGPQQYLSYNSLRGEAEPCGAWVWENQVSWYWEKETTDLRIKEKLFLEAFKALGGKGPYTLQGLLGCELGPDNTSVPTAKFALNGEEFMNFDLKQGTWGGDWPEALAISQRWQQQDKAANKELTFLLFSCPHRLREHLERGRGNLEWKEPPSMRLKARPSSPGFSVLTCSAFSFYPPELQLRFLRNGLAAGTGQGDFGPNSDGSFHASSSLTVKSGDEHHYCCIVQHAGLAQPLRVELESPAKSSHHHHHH

B1: BChE-Fc(M6) (Fc fusion)
chain: EDDIIIATKNGKVRGMNLTVFGGTVTAFLGIPYAQPPLGRLRFKKPQSLTKWSDIWNATKYANSCCQNIDQSFPGFHGSEMWNPNTDLSEDCLYLNVWIPAPKPKNATVLIWIYGGGFQTGTSSLHVYDGKFLARVERVIVVSMNYRVGALGFLALPGNPEAPGNMGLFDQQLALQWVQKNIAAFGGNPKSVTLFGESAGAASVSLHLLSPGSHSLFTRAILQSGSFNAPWAVTSLYEARNRTLNLAKLTGCSRENETEIIKCLRNKDPQEILLNEAFVVPYGTPLSVNFGPTVDGDFLTDMPDILLELGQFKKTQILVGVNKDEGTAFLVYGAPGFSKDNNSIITRKEFQEGLKIFFPGVSEFGKESILFHYTDWVDDQRPENYREALGDVVGDYNFICPALEFTKKFSEWGNNAFFYYFEHRSSKLPWPEWMGVMHGYEIEFVFGLPLERRDNYTKAEEILSRSIVKRWANFAKYGNPNETQNNSTSWPVFKSTEQKYLTLNTESTRIMTKLRAQQCRFWTSFFPKVVEPKSCDKTHTCPPCPAPELLGGPSVFLFPPKPKDTLYITREPEVTCVVVDVSHEDPEVKFNWYVDGVEVHNAKTKPREEQYNSTYRVVSVLTVLHQDWLNGKEYKCKVSNKALPAPIEKTISKAKGQPREPQVYTLPPSREEMTKNQVSLTCLVKGFYPSDIAVEWESNGQPENNYKTTPPVLDSDGSFFLYSKLTVDKSRWQQGNVFSCSVMHEALHNHYTQKSLSLSPGK
notes: Wild-type BChE fused to Fc(M6)
In the case of B1, in assay [1], the affinity, expressed as Kd, was 40 nM.

B2: CocH3G-Fc(M6) (Fc fusion)
chain: B1 chain with A199S, F227A, S287G, A328W, Y332G, T523G
Regarding B2, the dissociation constant Kd in assay [1] amounted to 40 nM.

B3: CocH5G-Fc(M6) (Fc fusion)
chain: B1 chain with A199S, F227A, P285A, S287G, A328W, Y332G, T523G
Consider B3, for which the dissociation constant Kd in assay [1] was found to be 40 nM.

B4: CocH3-Fc(M6) (Fc fusion)
chain: B1 chain with A199S, F227A, S287G, A328W, Y332G
notes: Expressed in CHO-S cells and purified on protein A; also called A530V/M567Y/S569T/T571E/D671E/L673M mutant of CocH3-Fc
With B4, the Kd in assay [2] and in assay [1] was 43 nM throughout. The “fold improvement in binding affinity against CocH3-Fc” value in assay [3] is around 100 fold.
